These results are taken from patent publication US20220305006A1, “COMPOSITIONS AND METHODS FOR THE TREATMENT OF NEUROLOGICAL DISEASES AND DISORDERS” (The Regents of the University of California, priority 2019, published 2022).

Test in all cases: cell-based or functional assay
For assay [1], the target named is BACE1 expressed from a transfected plasmid in 293T cells (NRG1 and PSGL1 assays).
Assay [2] has as its target BACE in CHO-7W cells (Chinese hamster ovary cells stably transfected with wildtype human APP).
For assay [3], the target named is Recombinant Human Cathepsin D (human) (UniProt P07339).
Recombinant Human Cathepsin D (human), sequence (P07339 65-412): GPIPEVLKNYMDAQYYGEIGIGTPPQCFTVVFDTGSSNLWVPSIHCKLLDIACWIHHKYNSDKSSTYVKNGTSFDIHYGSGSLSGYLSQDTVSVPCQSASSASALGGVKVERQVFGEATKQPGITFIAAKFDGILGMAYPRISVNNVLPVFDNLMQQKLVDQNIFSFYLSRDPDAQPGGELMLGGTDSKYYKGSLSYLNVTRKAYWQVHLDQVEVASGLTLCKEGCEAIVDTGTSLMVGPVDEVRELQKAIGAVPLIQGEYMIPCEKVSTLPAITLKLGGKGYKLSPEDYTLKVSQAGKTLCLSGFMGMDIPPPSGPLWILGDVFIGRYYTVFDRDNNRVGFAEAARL

In assay [1], “recombinant sAPPα, human, amino acids 19-613 (from UniProt P05067 19-613)” came in with an NRG1 cleavage by BACE in co-transfected 293T cells (secreted alkaline phosphatase), EC50 of over 10 µM and a PSGL1 cleavage by BACE in co-transfected 293T cells (secreted alkaline phosphatase), EC50 of over 10 µM. The same substance registered a decrease of BACE cleavage product sAPPβ from CHO-7W cells, EC50 in assay [2] of under 5 µM.
In assay [1], “BACE inhibitor 1 (statine BACE inhibitor 1) (peptide)” had an NRG1 cleavage by BACE in co-transfected 293T cells (secreted alkaline phosphatase), EC50 of over 10 µM and a PSGL1 cleavage by BACE in co-transfected 293T cells (secreted alkaline phosphatase), EC50 of over 10 µM. Besides, the Cat D activity (fluorogenic substrate), IC50 in assay [3] was under 0.01 µM.
